B1: ADI-34145 IgG (antibody, V domains shown)
VH: EVQLLESGGGLVQPGGSLRLSCAASGFTFSSYAMSWVRQAPGKGLEWVSTISGSGGSTYYADSVKGRFTISRDNSKNTLYLQMNSLRAEDTAVYYCARLGGRRGSGSSYYYYYGMDVWGQGTTVTVSS
VL: not shown
notes: anti-ID IgG
B2: ADI-34134 IgG (antibody, V domains shown)
VH: QVQLVQSGAEVKKPGSSVKVSCKASGGTFSSYAISWVRQAPGQGLEWMGGIIPIFGTANYAQKFQGRVTITADESTSTAYMELSSLRSEDTAVYYCARGAPNYYGSGGYDDGWFDPWGQGTLVTVSS
VL: EIVLTQSPGTLSLSPGERATLSCRASQSVSSDYLAWYQQKPGQAPRLLIYGASSRATGIPDRFSGSGSGTDFTLTISRLEPEDFAVYYCQQFGRVPTFGGGTKVEIK

Experiments:
[1] = target: T1, ADI-26916 IgG; experiment: SPR Carterra avidity, yeast anti-ID
T1 construct: anti-CD3 IgG
T1 sequence (VH, as listed by the source, chain 1 of 2): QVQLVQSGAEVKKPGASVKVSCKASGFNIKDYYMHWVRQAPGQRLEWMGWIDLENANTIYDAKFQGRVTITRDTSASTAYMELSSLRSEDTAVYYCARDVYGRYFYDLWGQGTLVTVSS
T1 sequence (VL, as listed by the source, chain 2 of 2): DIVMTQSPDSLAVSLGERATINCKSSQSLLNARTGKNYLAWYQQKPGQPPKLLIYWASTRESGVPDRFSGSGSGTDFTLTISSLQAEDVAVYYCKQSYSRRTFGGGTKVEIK
Method in brief: (§1)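 Anti-CD3 IgGs (100 nM) captured on goat anti-human Fc amine-coupled HC30M chip; anti-idiotype antibodies flowed as analytes, dissociation 300 s, HBSTE running buffer, 25° C. Double-referenced sensorgrams fitted to 1:1 model; glycine pH 1.7 regeneration.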

[2] = target: T2, ADI-76362; experiment: SPR Carterra avidity, yeast anti-ID
T2 construct: anti-CD3 antibody made in CHO cells, captured by anti-human Fc
T2 sequence (VH, as listed by the source, chain 1 of 2): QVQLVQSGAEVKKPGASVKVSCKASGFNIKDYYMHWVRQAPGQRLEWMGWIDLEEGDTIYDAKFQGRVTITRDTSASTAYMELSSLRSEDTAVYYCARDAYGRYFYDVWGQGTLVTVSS
T2 sequence (VL, as listed by the source, chain 2 of 2): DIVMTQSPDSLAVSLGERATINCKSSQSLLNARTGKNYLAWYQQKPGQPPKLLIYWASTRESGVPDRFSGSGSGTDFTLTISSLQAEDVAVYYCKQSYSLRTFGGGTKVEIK
Method in brief: as §1

| Binder | Kd [1] [nM] | Kd [2] [nM] |
| --- | --- | --- |
| B1 | 20 | – |
| B2 | – | 6.3 |
